Assay [1] deals with Plasmodium falciparum Hsp70‐x (full length) (Plasmodium falciparum). As to the kind of experiment: SPR; PfHsp70‐x or PfHsp70‐xT immobilised on ProteOn GLC chips, hHop as analyte at 125-2000 nM, 25°C, PBS‐Tween pH 7.4, with 5 mM ADP, Langmuir model. Background: SPR reads the build-up and loss of mass on a sensor chip optically.
Assay [2] has as its target PfHsp70‐x C‐terminal truncated version with a missing EEVN motif (Plasmodium falciparum). Described as above.
Assay [3] addresses Plasmodium falciparum Hsp70‐x (full length) (Plasmodium falciparum). As to the kind of experiment: SPR; PfHsp70‐x or PfHsp70‐xT immobilised on ProteOn GLC chips, hHop as analyte at 125-2000 nM, 25°C, PBS‐Tween pH 7.4, with 5 mM ATP, Langmuir model.
Assay [4] addresses PfHsp70‐x C‐terminal truncated version with a missing EEVN motif (Plasmodium falciparum). Described as above.
Assay [5] has as its target Plasmodium falciparum Hsp70‐x (full length) (Plasmodium falciparum). The assay can be described thus: SPR; PfHsp70‐x or PfHsp70‐xT immobilised on ProteOn GLC chips, hHop as analyte at 125-2000 nM, 25°C, PBS‐Tween pH 7.4, no nucleotide, Langmuir model.
The target in assay [6] is PfHsp70‐x C‐terminal truncated version with a missing EEVN motif (Plasmodium falciparum). The description is as above.

As to “human Hsp70‐Hsp90 organizing protein (from UniProt P31948 1-543) (natural protein)”, the Kd in assay [1] is 23.1 nM; in assay [2] it was 1660 nM; in assay [3] it was 380 nM; in assay [4] it was 41000 nM; in assay [5] it was 30.1 nM; in assay [6] it was 2100 nM. The koff in assay [1] was 3.7e-05 s⁻¹; in assay [2], 2.1e-05 s⁻¹; in assay [3] it was 0.00044 s⁻¹; in assay [4] it was 0.00032 s⁻¹; in assay [5], 2.3e-05 s⁻¹; in assay [6], 1.01e-05 s⁻¹. Moreover, the on-rate (kon) in assay [1] stood at 3300 M⁻¹ s⁻¹; in assay [2] it was 42.6 M⁻¹ s⁻¹; in assay [3], 3470 M⁻¹ s⁻¹; in assay [4], 54.1 M⁻¹ s⁻¹; in assay [5] it was 4300 M⁻¹ s⁻¹; in assay [6], 24.7 M⁻¹ s⁻¹.

As usually defined, the Kd is a measure of binding affinity in units of concentration. A high value points to lower affinity. The koff is a measure of how fast the partners let go of each other. A low value points to slow dissociation. Usually kon stands for a measure of how fast the partners come together. The low end stands for slower complex formation, the high end for faster complex formation.
